Test results from patent US12065673B2, “Method for obtaining human brown/beige adipocytes” (ETABLISSEMENT FRANCAIS DU SANG, priority 2015, dated 2024).

What was measured:
Type in all cases: cell-based, human
standard ASCs = test: Osteoblastic marker expression after BMP induction; settings: 50 ng/mL BMP for 3 days
[1] = test system: adipogenic progenitor cells (pAdSCs); test: Brown/beige marker UCP1 by western blotting and immuno-fluorescence; settings: adipocytes from adipogenic progenitor cells; for UCP1 induction at protein level: western blotting and immuno-fluorescence
Method: Proteins which were extracted by AllPrep DNA/RNA/Protein kit (Qiagen, Courtaboeuf, France) were subjected to the Western blot analysis. Briefly, eluate from DNA and RNA retention columns was precipitated by APP buffer (v/v), centrifuged (10,000 g, 10 min), washed by ethanol 70%, and air dried. Pellets were dissolved in ALO buffer (Qiagen, Courtaboeuf, France), sonicated and protein content was determined by Bicinchoninic Acid method (Pierce). After denaturation (95° C., 5 min), proteins were separated by 12% Tris-glycine-SDS polyacrylamide gel electrophoresis, and subsequently transferred to polyvinylidene difluoride membrane (PVDF). The proteins were detected with Rabbit polyclonal Ab anti-human SOX2 (ab97959; Abcam, Cambridge, UK), anti-human OCT4 (ab19857, Abcam), anti-human NANOG (SC33759; SantaCruz, Dallas, Tex.), anti-human PRDM16, anti-human UCP1, or with Mouse monoclonal Ab anti-human PPARG, anti-βActin and anti-RUNX2 (Abcam) antibodies. […] The Pactin was used as internal positive control (Sigma).
After expansion, ASC- or EGM-2-derived cells were also cultured in chamber slides and after becoming confluent, cells were induced to differentiate into brown/beige adipocytes. After 7 days, the cells were stained with anti-UCP1 antibody (Alpha Diagnostic, San-Antonio, Tex.), and then with Alexa488-labeled goat anti-mouse secondary antibody (Invitrogen). The staining was read by using confocal microscope (Zeiss 510, Zeiss, Oberkochen, Germany).

[2] = test system: adipogenic progenitor cells (pAdSCs); test: Adipogenic differentiation after BMP induction (QRT-PCR adipocyte markers, Oil red O); settings: 50 ng/mL BMP for 3 days, recovered at day 10
Method: Total RNA was extracted from ASCs and purified by AllPrep DNA/RNA/Protein kit (Qiagen, Courtaboeuf, France) and dosed by nanodrop (Thermo Fischer, Courtaboeuf, France). RNA purity and integrity was checked using the Experion™ RNA Std Sens Reagents on the Experion automatisated system (Biorad). […] The reverse transcription (RT) was performed on 1 μg RNA by using high capacity cDNA reverse transcription kit (Applied Biosystem ™) and random hexamers in a final volume of 20 μL. The oligonucleotides for each target of interest, designed by using Primer Express software (PerkinElmer Life Sciences, Waltham, Mass.) were used (forward and reverse) and listed in table1. Quantitative PCR was performed on diluted cDNA (equivalent to 25 ng of starting purified RNA) using SSoFast EvaGreen Supermix (Biorad, Marnes-la-Coquette, France) with 500 nM of forward and reverse primers in a total volume of 20 μL on a CFX™ Real Time System (Biorad) following: 95° C., 3 minutes and 40 cycles of denaturation (95° C., 10 seconds) and primers hybridation and amplification (60° C., 30 seconds). […] Melt curves and appropriate No RT control were used to validate amplification specificity. Data were analysed on Bio-Rad CFX manager (threshold=0.2), exported to DataAssist Software v3.0 (Applied Biosystems). […] All real-time PCR reactions for the individual samples were performed in duplicate. […]

[3] = test system: EGM2-derived Bone Marrow-MSCs; test: BMP7-induced differentiation of BM-MSCs (QRT-PCR)
[4] = test system: MSCs cultured in standard conditions; test: BMP7-induced differentiation of BM-MSCs cultured in standard conditions; settings: BMP7 treatment

| Molecule | osteoblastic marker expression after BMP treatment (standard ASCs) | UCP1 induction at protein level [1] | adipocyte generation after BMP treatment [2] | expression of adipogenic and brown/beige genes (UCP1, CIDEA) [3] | differentiation outcome of MSCs [4] | UCP1 induction, BMP7 compared with BMP4 [1] |
| --- | --- | --- | --- | --- | --- | --- |
| Bone Morphogenetic Protein 4 (protein, UniProt P12644 293-408, looked up, recombinant human Bone Morphogenetic Protein 4 (Miltenyi), adipogenic/browning agent) Bone morphogenetic protein 4: SPKHHSQRARKKNKNCRRHSLYVDFSDVGWNDWIVAPPGYQAFYCHGDCPFPLADHLNSTNHAIVQTLVNSVNSSIPKACCVPTELSAISMLYLDEYDKVVLKNYQEMVVEGCGCR | expressed high levels of osteoblastic markers | strongly induced | generated clearly defined adipocytes | – | – | – |
| BMP7: recombinant human BMP7 (RnD system's), pro-beige/brown adipocyte factor (protein, UniProt P18075 293-431, looked up) Bone morphogenetic protein 7: STGSKQRSQNRSKTPKNQEALRMANVAENSSSDQRQACKKHELYVSFRDLGWQDWIIAPEGYAAYYCEGECAFPLNSYMNATNHAIVQTLVHFINPETVPKPCCAPTQLNAISVLYFDDSSNVILKKYRNMVVRACGCH | expressed high levels of osteoblastic markers | strongly induced | generated clearly defined adipocytes | triggered expressions of adipogenic and UCP1, CIDEA genes | differentiate into osteoblastic cells solely | more potent and reliable |
